From patent US7998940B2, “Aptamers to von Willebrand factor and their use as thrombotic disease therapeutics” (Archemix Corp., priority 2004, dated 2011)

B1: AMX199.F8: DNA SELEX 1 aptamer clone (nucleic acid)
DNA: CTACCTACGATCTGACTAGCAAGGGGATTGGCTCCGGGTCTGGCGTGCTTGGCACCTCTGGCTTACTCTCATGTAGTTCC
modifications: DNA, backbone not given here
notes: DNA SELEX 1 aptamer clone
B2: AMX200.E10: DNA SELEX 1 aptamer clone (nucleic acid)
DNA: CTACCTACGATCTGACTAGCAAGGGGATTGGCTCCGGGTCTGGCGTGCTCGGCACCTTTGGCTTACTCTCATGTAGTTCC
modifications: DNA, backbone not given here
notes: DNA SELEX 1 aptamer clone
B3: AMX199.D8: DNA SELEX 1 aptamer clone (nucleic acid)
DNA: CTACCTACGATCTGACTAGCAAGGGGATTGGCTCCGGGTCTGGCGTGCTTGGCATCTTCGGCTTACTCTCATGTAGTTCC
modifications: DNA, backbone not given here
notes: DNA SELEX 1 aptamer clone
B4: AMX199.B6: DNA SELEX 1 aptamer clone (nucleic acid)
DNA: CTACCTACGATCTGACTAGCAAGGGGATTGGCTCCGGGTCTGGCGTGCTTGGTACCTCCGGCTTACTCTCATGTAGTTCC
modifications: DNA, backbone not given here
notes: DNA SELEX 1 aptamer clone
B5: AMX199.F10: DNA SELEX 1 aptamer clone (nucleic acid)
DNA: CTACCTACGATCTGACTAGCGAAACACTAGGTTGGTTAGGATTGGTGTGTTTCCGTTCTGCTTACTCTCATGTAGTTCC
modifications: DNA, backbone not given here
notes: DNA SELEX 1 aptamer clone
B6: AMX199.G4: DNA SELEX 1 aptamer clone (nucleic acid)
DNA: CTACCTACGATCTGACTAGCGAAACACTAGGTTGGTTAGGATTGGTGTGTTCCCGCTATGCTTACTCTCATGTAGTTCC
modifications: DNA, backbone not given here
notes: DNA SELEX 1 aptamer clone
B7: AMX199.F11: DNA SELEX 1 aptamer clone (nucleic acid)
DNA: CTACCTACGATCTGACTAGCGAAACACTAGGTTGGTTAGGATTGGTGTGTTTCTGCTCTGCTTACTCTCATGTAGTTCC
modifications: DNA, backbone not given here
notes: DNA SELEX 1 aptamer clone
B8: AMX199.F6: DNA SELEX 1 aptamer clone (nucleic acid)
DNA: CTACCTACGATCTGACTAGCGAAACACTAGGTTGGTTAGGATTGGTGTGTTCCCGCTCTGCTTACTCTCATGTAGTTCC
modifications: DNA, backbone not given here
notes: DNA SELEX 1 aptamer clone
B9: AMX199.G5: DNA SELEX 1 aptamer clone (nucleic acid)
DNA: CTACCTACGATCTGACTAGCGAAACACTAGGTTGGTTAGGATTGGTGTGTTCCCGCCCTGCTTACTCTCATGTAGTTCC
modifications: DNA, backbone not given here
notes: DNA SELEX 1 aptamer clone
B10: AMX199.G1: DNA SELEX 1 aptamer clone (nucleic acid)
DNA: CTACCTACGATCTGACTAGCGAAACACTAGGTTGGTTAGGATTGGTGTGTTCCCGCTTTGCTTACTCTCATGTAGTTCC
modifications: DNA, backbone not given here
notes: DNA SELEX 1 aptamer clone
B11: AMX199.A10: DNA SELEX 1 aptamer clone (nucleic acid)
DNA: CTACCTACGATCTGACTAGCGGAACACTAGGTTGGTTAGGATTGGTGTGTTCCCGTTTTGCTTACTCTCATGTAGTTCC
modifications: DNA, backbone not given here
notes: DNA SELEX 1 aptamer clone
B12: AMX199.H7: DNA SELEX 1 aptamer clone (nucleic acid)
DNA: CTACCTACGATCTGACTAGCGAAACACTAGGTTGGTTAGGATTGGTGTGTTTCCGCTTTGCTTACTCTCATGTAGTTCC
modifications: DNA, backbone not given here
notes: DNA SELEX 1 aptamer clone
B13: AMX199.F1: DNA SELEX 1 aptamer clone (nucleic acid)
DNA: CTACCTACGATCTGACTAGCGAAACACTAGGTTGGTTAGGATTGGTGTGTTCCCGCTATGCTTACTCTCATGTAGTTCC
modifications: DNA, backbone not given here
notes: DNA SELEX 1 aptamer clone
B14: AMX200.A11: DNA SELEX 1 aptamer clone (nucleic acid)
DNA: CTACCTACGATCTGACTAGCTGAGTAGTTAGTAACTTTTTATTATGGTTTGGTGGGTCTGGCTTACTCTCATGTAGTTCC
modifications: DNA, backbone not given here
notes: DNA SELEX 1 aptamer clone
B15: AMX200.H8: DNA SELEX 1 aptamer clone (nucleic acid)
DNA: CTACCTACGATCTGACTAGCTGAGTAGTCAGTAATTTTTTATTATGGTTTGGTGGGCCTGGCTTACTCTCATGTAGTTCC
modifications: DNA, backbone not given here
notes: DNA SELEX 1 aptamer clone
B16: AMX200.B1: DNA SELEX 1 aptamer clone (nucleic acid)
DNA: CTACCTACGATCTGACTAGCGGAATGAGAATGCTGATGGATTGCCCAGGTCTGCTGGCTGCTTACTCTCATGTAGTTCC
modifications: DNA, backbone not given here
notes: DNA SELEX 1 aptamer clone
B17: AMX200.F9: DNA SELEX 1 aptamer clone (nucleic acid)
DNA: CTACCTACGATCTGACTAGCGGAATGAGGATGCTGATGGATTGGTCAGGTCTGCTGGCTGCTTACTCTCATGTAGTTCC
modifications: DNA, backbone not given here
notes: DNA SELEX 1 aptamer clone
B18: AMX202.D6: DNA SELEX 1 aptamer clone (nucleic acid)
DNA: CTACCTACGATCTGACTAGCGGAATGAGAAGGCTGATGGATTGCTCAGGTCTGCTGGCTGCTTACTCTCATGTAGTTCC
modifications: DNA, backbone not given here
notes: DNA SELEX 1 aptamer clone
B19: AMX202.B8: DNA SELEX 1 aptamer clone (nucleic acid)
DNA: CTACCTACGATCTGACTAGCGGAATGAGTATGCTGATGGATTGCTCAGGTCTGCTGGCTGCTTACTCTCATGTAGTTCC
modifications: DNA, backbone not given here
notes: DNA SELEX 1 aptamer clone
B20: AMX200.E8: DNA SELEX 1 aptamer clone (nucleic acid)
DNA: CTACCTACGATCTGACTAGCGGAATGAGGATGCTGGTGGATTGCTCAGGTCTGTTGGCTGCTTACTCTCATGTAGTTCC
modifications: DNA, backbone not given here
notes: DNA SELEX 1 aptamer clone
B21: AMX200.D1: DNA SELEX 1 aptamer clone (nucleic acid)
DNA: CTACCTACGATCTGACTAGCGGAATGAGAGTGCTGATGGATTGCTCAGGTCTACTGGCTGCTTACTCTCATGTAGTTCC
modifications: DNA, backbone not given here
notes: DNA SELEX 1 aptamer clone
B22: AMX200.B8: DNA SELEX 1 aptamer clone (nucleic acid)
DNA: CTACCTACGATCTGACTAGCGGAATGAGAATGTTGGTGGATTGCTCAGGTCTGCTGGCTGCTTACTCTCATGTAGTTCC
modifications: DNA, backbone not given here
notes: DNA SELEX 1 aptamer clone
B23: AMX202.H10: DNA SELEX 1 aptamer clone (nucleic acid)
chain: CTACCTACGATCTGACTAGCGGAATGAGAAGGCTGGTGGATTGCTCAGGTCTGCTGGCTGCTTACTCTCATGTAGTTCC
modifications: DNA, backbone and methylation of C not given here
notes: DNA SELEX 1 aptamer clone

What was measured:
[1] = target: human vWF A1 domain (SEQ ID NO 5) (Homo sapiens, UniProt P04275, T1381A); assay: 3-point dot blot screen, human vWF A1 domain; type: binding; details: DNA SELEX 1 aptamers; 100 nM human vWF A1 domain; ratio of fraction bound with target to without
Excerpt: (§1) When a significant positive ratio of binding of RNA in the presence of human or rabbit vWF A1 domain versus in the absence of protein was seen, the pools were cloned using the TOPO TA cloning kit (Invitrogen, Cat. #45-0641, Carlsbad, Calif.) according to the manufacturer's instructions. Round 9 and 12 pool templates were cloned and sequenced (125 total sequences), producing 48 unique clones. All unique clones were transcribed, desalted, 5-^32P end-labeled, and assayed in a 3-point dot blot screen (no protein target control, 100 nM human vWF A1 domain (SEQ ID NO 5, FIG. 3), or 100 nM rabbit vWF A1 domain (SEQ ID NO 6, FIG. 3). The data is presented in the third and fourth columns of Table 4 below as the ratio of the fraction of the aptamer bound to the nitrocellulose in the presence of the target protein to the fraction of aptamer bound in the absence of the target protein.
(§2) When a significant positive ratio of binding of RNA in the presence of human or rabbit vWF A1 domain (SEQ ID NOS 4 and 6, respectively) versus in the absence of protein was seen, the pools were cloned using the TOPO TA cloning kit (Invitrogen Cat. #45-0641, Carlsbad, Calif.) according to the manufacturer's instructions. Round 9 and 12 pool templates were cloned and sequenced (185 total sequences), producing 78 unique clones within 3 sequence families. All unique clones were transcribed, desalted, 5-^32P end-labeled, and assayed in a 3-point dot blot screen (no protein target control, 100 nM human vWF A1 domain (SEQ ID NO 5), or 100 nM rabbit vWF A1 domain (SEQ ID NO 6). The data are presented in the third and fourth columns of Table 9 below as the ratio of the fraction of the aptamer bound to the nitrocellulose in the presence of the target protein to the fraction of aptamer bound in the absence of the target protein. Of the three sequence families, members of Family #1 and #2 and two individual, non-family aptamers, bound to both human vWF domain A1 (SEQ ID NO 5) and rabbit vWF domain A1 (SEQ ID NO 6).
(§3) All unique clones were assayed in a 3-point dot blot screen (no protein target control, 100 nM human vWF A1 domain (SEQ ID NO 5), or 100 nM rabbit vWF A1 domain (SEQ ID NO 6). The data are presented in the third and fourth columns of Table 14 below as the ratio of the fraction of the aptamer bound to the nitrocellulose in the presence of the target protein to the fraction of aptamer bound in the absence of the target protein.

[2] = tested on: rabbit vWF A1 domain (SEQ ID NO 6); assay: 3-point dot blot screen, rabbit vWF A1 domain; type: binding; details: DNA SELEX 1 aptamers; 100 nM rabbit vWF A1 domain; ratio of fraction bound with target to without
Excerpt: as §1, §2, §3
When a significant positive ratio of binding of DNA in the presence of human or rabbit vWF A1 domain versus in the absence of protein was seen, the pools were cloned using the TOPO TA cloning kit (Invitrogen Cat. #45-0641, Carlsbad, Calif.) according to the manufacturer's instructions. Round 7 and 11 pool templates were cloned and sequenced (218 total sequences), producing 146 unique clones within 12 sequence families of which sequences from six families show vWF target binding activity. All unique clones were assayed twice in a 3-point dot blot screen (no protein target control, 20 nM full length human vWF (Calbiochem Cat. #681300, La Jolla, Calif.), or 20 nM rabbit vWF A1 domain. The data is presented in the third and fourth columns of Table 17 below as the ratio of the fraction of the aptamer bound to the nitrocellulose in the presence of the target protein to the fraction of aptamer bound in the absence of the target protein.

Chain of human vWF A1 domain (SEQ ID NO 5) (P04275 with tags, fused parts or gaps T1381A): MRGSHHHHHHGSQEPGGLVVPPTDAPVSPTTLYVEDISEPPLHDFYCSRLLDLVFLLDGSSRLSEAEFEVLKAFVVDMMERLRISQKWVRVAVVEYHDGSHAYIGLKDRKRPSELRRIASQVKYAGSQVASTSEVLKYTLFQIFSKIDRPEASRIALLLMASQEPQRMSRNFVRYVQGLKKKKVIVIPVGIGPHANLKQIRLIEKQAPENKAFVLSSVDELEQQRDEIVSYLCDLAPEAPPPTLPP
Chain of rabbit vWF A1 domain (SEQ ID NO 6) (as listed by the source): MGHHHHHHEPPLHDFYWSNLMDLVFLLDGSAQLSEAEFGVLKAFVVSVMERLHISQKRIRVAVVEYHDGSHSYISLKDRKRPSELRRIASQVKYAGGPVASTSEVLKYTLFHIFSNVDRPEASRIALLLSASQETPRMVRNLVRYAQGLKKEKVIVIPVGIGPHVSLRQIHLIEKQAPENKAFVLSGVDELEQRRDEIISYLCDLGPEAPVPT

Molecule | Screen- Human/No Protein [1] | Screen- Rabbit/No Protein [2]
B1 | 1.78 | 1.79
B2 | 1.69 | 1.82
B3 | 1.89 | 2.00
B4 | 2.01 | 1.91
B5 | 1.17 | 1.24
B6 | 1.19 | 1.11
B7 | 1.44 | 1.35
B8 | 1.37 | 1.30
B9 | 1.41 | 1.34
B10 | 1.19 | 1.26
B11 | 1.25 | 1.29
B12 | 1.32 | 1.14
B13 | 1.32 | 1.36
B14 | 1.49 | 1.19
B15 | 1.86 | 1.27
B16 | 4.01 | 3.01
B17 | 0.97 | 0.99
B18 | 1.94 | 1.55
B19 | 1.66 | 1.41
B20 | 1.04 | 1.03
B21 | 1.26 | 1.06
B22 | 4.13 | 3.13
B23 | 1.92 | 1.76
